Results reported in patent US20170008943A1 (Novo Nordisk, published 2017).
*1 amine or outer side, *2 acyl side, *3 side chain or, on linkers, in order; H or OH if unused. Side-chain parts run from the residue outwards. [ ]: non-standard residue; d: D form. The star is where a group is joined. γGlu = O=C(O)[C@H](CCC(=O)[*:2])N[*:1]; Desaminohistidyl = O=C(CCc1c[nH]cn1)*; Aib = CC(C)(N)C(=O)O

B1: N^ε24-[(4S)-4-[[(4S)-4-[[(4S)-4-[[(4S)-4-acetamido-4-carboxybutanoyl]amino]-4-carboxybutanoyl]amino]-4-carboxybutanoyl]amino]-4-carboxybutanoyl]-[Imp1, Aib2, … (peptide)
peptide: [Desaminohistidyl][Aib]HGTFTSDYSKYLESRRAQDFVK([γGlu-γGlu-γGlu-γGlu-Ac])WLLST-OH
SMILES: CC(=O)N[C@@H](CCC(=O)N[C@@H](CCC(=O)N[C@@H](CCC(=O)N[C@@H](CCC(=O)NCCCC[C@H](NC(=O)[C@@H](NC(=O)[C@H](Cc1ccccc1)NC(=O)[C@H](CC(=O)O)NC(=O)[C@H](CCC(N)=O)NC(=O)[C@H](C)NC(=O)[C@H](CCCNC(=N)N)NC(=O)[C@H](CCCNC(=N)N)NC(=O)[C@H](CO)NC(=O)[C@H](CCC(=O)O)NC(=O)[C@H](CC(C)C)NC(=O)[C@H](Cc1ccc(O)cc1)NC(=O)[C@H](CCCCN)NC(=O)[C@H](CO)NC(=O)[C@H](Cc1ccc(O)cc1)NC(=O)[C@H](CC(=O)O)NC(=O)[C@H](CO)NC(=O)[C@@H](NC(=O)[C@H](Cc1ccccc1)NC(=O)[C@@H](NC(=O)CNC(=O)[C@H](Cc1c[nH]cn1)NC(=O)C(C)(C)NC(=O)CCc1c[nH]cn1)[C@@H](C)O)[C@@H](C)O)C(C)C)C(=O)N[C@@H](Cc1c[nH]c2ccccc12)C(=O)N[C@@H](CC(C)C)C(=O)N[C@@H](CC(C)C)C(=O)N[C@@H](CO)C(=O)N[C@H](C(=O)O)[C@@H](C)O)C(=O)O)C(=O)O)C(=O)O)C(=O)O
notes: Imp and Aib written X under substitutions
B2: N^ε24-[(4S)-4-[[(4S)-4-[[(4S)-4-[[(4S)-4-acetamido-4-carboxybutanoyl]amino]-4-carboxybutanoyl]amino]-4-carboxybutanoyl]amino]-4-carboxybutanoyl]-[Imp1, Aib2, … (peptide)
peptide: [Desaminohistidyl][Aib]HGTFTSDYSKYLDLRRAQDFVK([γGlu-γGlu-γGlu-γGlu-Ac])WLLST-OH
SMILES: CC(=O)N[C@@H](CCC(=O)N[C@@H](CCC(=O)N[C@@H](CCC(=O)N[C@@H](CCC(=O)NCCCC[C@H](NC(=O)[C@@H](NC(=O)[C@H](Cc1ccccc1)NC(=O)[C@H](CC(=O)O)NC(=O)[C@H](CCC(N)=O)NC(=O)[C@H](C)NC(=O)[C@H](CCCNC(=N)N)NC(=O)[C@H](CCCNC(=N)N)NC(=O)[C@H](CC(C)C)NC(=O)[C@H](CC(=O)O)NC(=O)[C@H](CC(C)C)NC(=O)[C@H](Cc1ccc(O)cc1)NC(=O)[C@H](CCCCN)NC(=O)[C@H](CO)NC(=O)[C@H](Cc1ccc(O)cc1)NC(=O)[C@H](CC(=O)O)NC(=O)[C@H](CO)NC(=O)[C@@H](NC(=O)[C@H](Cc1ccccc1)NC(=O)[C@@H](NC(=O)CNC(=O)[C@H](Cc1c[nH]cn1)NC(=O)C(C)(C)NC(=O)CCc1c[nH]cn1)[C@@H](C)O)[C@@H](C)O)C(C)C)C(=O)N[C@@H](Cc1c[nH]c2ccccc12)C(=O)N[C@@H](CC(C)C)C(=O)N[C@@H](CC(C)C)C(=O)N[C@@H](CO)C(=O)N[C@H](C(=O)O)[C@@H](C)O)C(=O)O)C(=O)O)C(=O)O)C(=O)O
notes: Imp and Aib are written X under substitutions because they have no one-letter code
B3: N^ε24-[(4S)-4-[[(4S)-4-[[(4S)-4-[[(4S)-4-acetamido-4-carboxybutanoyl]amino]-4-carboxybutanoyl]amino]-4-carboxybutanoyl]amino]-4-carboxybutanoyl]-[Imp1, Aib2, … (peptide)
peptide: [Desaminohistidyl][Aib]HGTFTSDYSKYLDVRRAQDFVK([γGlu-γGlu-γGlu-γGlu-Ac])WLLST-OH
SMILES: CC(=O)N[C@@H](CCC(=O)N[C@@H](CCC(=O)N[C@@H](CCC(=O)N[C@@H](CCC(=O)NCCCC[C@H](NC(=O)[C@@H](NC(=O)[C@H](Cc1ccccc1)NC(=O)[C@H](CC(=O)O)NC(=O)[C@H](CCC(N)=O)NC(=O)[C@H](C)NC(=O)[C@H](CCCNC(=N)N)NC(=O)[C@H](CCCNC(=N)N)NC(=O)[C@@H](NC(=O)[C@H](CC(=O)O)NC(=O)[C@H](CC(C)C)NC(=O)[C@H](Cc1ccc(O)cc1)NC(=O)[C@H](CCCCN)NC(=O)[C@H](CO)NC(=O)[C@H](Cc1ccc(O)cc1)NC(=O)[C@H](CC(=O)O)NC(=O)[C@H](CO)NC(=O)[C@@H](NC(=O)[C@H](Cc1ccccc1)NC(=O)[C@@H](NC(=O)CNC(=O)[C@H](Cc1c[nH]cn1)NC(=O)C(C)(C)NC(=O)CCc1c[nH]cn1)[C@@H](C)O)[C@@H](C)O)C(C)C)C(C)C)C(=O)N[C@@H](Cc1c[nH]c2ccccc12)C(=O)N[C@@H](CC(C)C)C(=O)N[C@@H](CC(C)C)C(=O)N[C@@H](CO)C(=O)N[C@H](C(=O)O)[C@@H](C)O)C(=O)O)C(=O)O)C(=O)O)C(=O)O
notes: as for B1
B4: N^ε24-[(4S)-4-[[(4S)-4-[[(4S)-4-[[(4S)-4-acetamido-4-carboxybutanoyl]amino]-4-carboxybutanoyl]amino]-4-carboxybutanoyl]amino]-4-carboxybutanoyl]-[Imp1, Aib2, … (peptide)
peptide: [Desaminohistidyl][Aib]HGTFTSDLSKYLESRRAQDFVK([γGlu-γGlu-γGlu-γGlu-Ac])WLLST-OH
SMILES: CC(=O)N[C@@H](CCC(=O)N[C@@H](CCC(=O)N[C@@H](CCC(=O)N[C@@H](CCC(=O)NCCCC[C@H](NC(=O)[C@@H](NC(=O)[C@H](Cc1ccccc1)NC(=O)[C@H](CC(=O)O)NC(=O)[C@H](CCC(N)=O)NC(=O)[C@H](C)NC(=O)[C@H](CCCNC(=N)N)NC(=O)[C@H](CCCNC(=N)N)NC(=O)[C@H](CO)NC(=O)[C@H](CCC(=O)O)NC(=O)[C@H](CC(C)C)NC(=O)[C@H](Cc1ccc(O)cc1)NC(=O)[C@H](CCCCN)NC(=O)[C@H](CO)NC(=O)[C@H](CC(C)C)NC(=O)[C@H](CC(=O)O)NC(=O)[C@H](CO)NC(=O)[C@@H](NC(=O)[C@H](Cc1ccccc1)NC(=O)[C@@H](NC(=O)CNC(=O)[C@H](Cc1c[nH]cn1)NC(=O)C(C)(C)NC(=O)CCc1c[nH]cn1)[C@@H](C)O)[C@@H](C)O)C(C)C)C(=O)N[C@@H](Cc1c[nH]c2ccccc12)C(=O)N[C@@H](CC(C)C)C(=O)N[C@@H](CC(C)C)C(=O)N[C@@H](CO)C(=O)N[C@H](C(=O)O)[C@@H](C)O)C(=O)O)C(=O)O)C(=O)O)C(=O)O
notes: as for B1
B5: N^ε24-[(4S)-4-[[(4S)-4-[[(4S)-4-[[(4S)-4-acetamido-4-carboxybutanoyl]amino]-4-carboxybutanoyl]amino]-4-carboxybutanoyl]amino]-4-carboxybutanoyl]-[Imp1, Aib2, … (peptide)
peptide: [Desaminohistidyl][Aib]HGTFTSDYSKYLESRRAQEFVK([γGlu-γGlu-γGlu-γGlu-Ac])WLLST-OH
SMILES: CC(=O)N[C@@H](CCC(=O)N[C@@H](CCC(=O)N[C@@H](CCC(=O)N[C@@H](CCC(=O)NCCCC[C@H](NC(=O)[C@@H](NC(=O)[C@H](Cc1ccccc1)NC(=O)[C@H](CCC(=O)O)NC(=O)[C@H](CCC(N)=O)NC(=O)[C@H](C)NC(=O)[C@H](CCCNC(=N)N)NC(=O)[C@H](CCCNC(=N)N)NC(=O)[C@H](CO)NC(=O)[C@H](CCC(=O)O)NC(=O)[C@H](CC(C)C)NC(=O)[C@H](Cc1ccc(O)cc1)NC(=O)[C@H](CCCCN)NC(=O)[C@H](CO)NC(=O)[C@H](Cc1ccc(O)cc1)NC(=O)[C@H](CC(=O)O)NC(=O)[C@H](CO)NC(=O)[C@@H](NC(=O)[C@H](Cc1ccccc1)NC(=O)[C@@H](NC(=O)CNC(=O)[C@H](Cc1c[nH]cn1)NC(=O)C(C)(C)NC(=O)CCc1c[nH]cn1)[C@@H](C)O)[C@@H](C)O)C(C)C)C(=O)N[C@@H](Cc1c[nH]c2ccccc12)C(=O)N[C@@H](CC(C)C)C(=O)N[C@@H](CC(C)C)C(=O)N[C@@H](CO)C(=O)N[C@H](C(=O)O)[C@@H](C)O)C(=O)O)C(=O)O)C(=O)O)C(=O)O
notes: as for B1
B6: N^ε28-[(4S)-4-[[(4S)-4-[[(4S)-4-[[(4S)-4-acetamido-4-carboxybutanoyl]amino]-4-carboxybutanoyl]amino]-4-carboxybutanoyl]amino]-4-carboxybutanoyl]-[Imp1, Aib2, … (peptide)
peptide: [Desaminohistidyl][Aib]HGTFTSDYSKYLESRRAQDFVAWLLK([γGlu-γGlu-γGlu-γGlu-Ac])T-OH
SMILES: CC(=O)N[C@@H](CCC(=O)N[C@@H](CCC(=O)N[C@@H](CCC(=O)N[C@@H](CCC(=O)NCCCC[C@H](NC(=O)[C@H](CC(C)C)NC(=O)[C@H](CC(C)C)NC(=O)[C@H](Cc1c[nH]c2ccccc12)NC(=O)[C@H](C)NC(=O)[C@@H](NC(=O)[C@H](Cc1ccccc1)NC(=O)[C@H](CC(=O)O)NC(=O)[C@H](CCC(N)=O)NC(=O)[C@H](C)NC(=O)[C@H](CCCNC(=N)N)NC(=O)[C@H](CCCNC(=N)N)NC(=O)[C@H](CO)NC(=O)[C@H](CCC(=O)O)NC(=O)[C@H](CC(C)C)NC(=O)[C@H](Cc1ccc(O)cc1)NC(=O)[C@H](CCCCN)NC(=O)[C@H](CO)NC(=O)[C@H](Cc1ccc(O)cc1)NC(=O)[C@H](CC(=O)O)NC(=O)[C@H](CO)NC(=O)[C@@H](NC(=O)[C@H](Cc1ccccc1)NC(=O)[C@@H](NC(=O)CNC(=O)[C@H](Cc1c[nH]cn1)NC(=O)C(C)(C)NC(=O)CCc1c[nH]cn1)[C@@H](C)O)[C@@H](C)O)C(C)C)C(=O)N[C@H](C(=O)O)[C@@H](C)O)C(=O)O)C(=O)O)C(=O)O)C(=O)O
notes: as for B1
B7: N^ε24-[(4S)-4-[[(4S)-4-[[(4S)-4-[[(4S)-4-acetamido-4-carboxybutanoyl]amino]-4-carboxybutanoyl]amino]-4-carboxybutanoyl]amino]-4-carboxybutanoyl]-[Imp1, His3, … (peptide)
peptide: [Desaminohistidyl]SHGTFTSDYSKYLESRRAQEFVK([γGlu-γGlu-γGlu-γGlu-Ac])WLLST-OH
SMILES: CC(=O)N[C@@H](CCC(=O)N[C@@H](CCC(=O)N[C@@H](CCC(=O)N[C@@H](CCC(=O)NCCCC[C@H](NC(=O)[C@@H](NC(=O)[C@H](Cc1ccccc1)NC(=O)[C@H](CCC(=O)O)NC(=O)[C@H](CCC(N)=O)NC(=O)[C@H](C)NC(=O)[C@H](CCCNC(=N)N)NC(=O)[C@H](CCCNC(=N)N)NC(=O)[C@H](CO)NC(=O)[C@H](CCC(=O)O)NC(=O)[C@H](CC(C)C)NC(=O)[C@H](Cc1ccc(O)cc1)NC(=O)[C@H](CCCCN)NC(=O)[C@H](CO)NC(=O)[C@H](Cc1ccc(O)cc1)NC(=O)[C@H](CC(=O)O)NC(=O)[C@H](CO)NC(=O)[C@@H](NC(=O)[C@H](Cc1ccccc1)NC(=O)[C@@H](NC(=O)CNC(=O)[C@H](Cc1c[nH]cn1)NC(=O)[C@H](CO)NC(=O)CCc1c[nH]cn1)[C@@H](C)O)[C@@H](C)O)C(C)C)C(=O)N[C@@H](Cc1c[nH]c2ccccc12)C(=O)N[C@@H](CC(C)C)C(=O)N[C@@H](CC(C)C)C(=O)N[C@@H](CO)C(=O)N[C@H](C(=O)O)[C@@H](C)O)C(=O)O)C(=O)O)C(=O)O)C(=O)O
notes: Imp written X under substitutions

target: T1, human glucagon receptor (human, UniProt P47871 26-477); test: cell-based or functional assay
T1 sequence (P47871 26-477): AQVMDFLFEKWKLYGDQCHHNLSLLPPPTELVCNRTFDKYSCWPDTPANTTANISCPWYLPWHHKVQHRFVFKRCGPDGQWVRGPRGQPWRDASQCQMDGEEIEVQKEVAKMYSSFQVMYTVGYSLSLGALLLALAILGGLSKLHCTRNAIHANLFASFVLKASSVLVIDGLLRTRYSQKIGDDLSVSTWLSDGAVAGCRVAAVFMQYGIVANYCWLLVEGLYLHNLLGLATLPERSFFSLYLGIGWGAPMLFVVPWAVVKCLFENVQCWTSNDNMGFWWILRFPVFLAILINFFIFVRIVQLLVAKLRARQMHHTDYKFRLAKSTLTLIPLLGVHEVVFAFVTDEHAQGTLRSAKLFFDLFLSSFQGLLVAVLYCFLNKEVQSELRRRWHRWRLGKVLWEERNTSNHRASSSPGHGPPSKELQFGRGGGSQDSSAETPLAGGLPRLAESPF

Binder | EC50 hGlucagonR (pM), CRE luciferase reporter in BHK cells [pM]
B1 | 5
B2 | 1
B3 | 2
B4 | 10
B5 | 2
B6 | 5
B7 | 4.7

target: T1, human glucagon receptor; test: displacement of 125I-glucagon from BHK membranes with human glucagon receptor (SPA), Assay (II)(b)

Binder | IC50 [nM]
B1 | 1.9
B2 | 0.2
B3 | 0.5
B4 | 4.9
B5 | 1
B6 | 1.8
B7 | 1.8
